# Reference: patent US20200055896
# Tests used:
# [1] = test system: aP probe: FGF21-based peptide with D-alanine at P2 (VaPSQG)
# [2] = test system: GP probe: fluorescence-quenched peptide of the region flanking the C-terminal human FGF21 cleavage site (VGPSQG)
# PREP in mouse plasma, sequence (chain, as listed by the source): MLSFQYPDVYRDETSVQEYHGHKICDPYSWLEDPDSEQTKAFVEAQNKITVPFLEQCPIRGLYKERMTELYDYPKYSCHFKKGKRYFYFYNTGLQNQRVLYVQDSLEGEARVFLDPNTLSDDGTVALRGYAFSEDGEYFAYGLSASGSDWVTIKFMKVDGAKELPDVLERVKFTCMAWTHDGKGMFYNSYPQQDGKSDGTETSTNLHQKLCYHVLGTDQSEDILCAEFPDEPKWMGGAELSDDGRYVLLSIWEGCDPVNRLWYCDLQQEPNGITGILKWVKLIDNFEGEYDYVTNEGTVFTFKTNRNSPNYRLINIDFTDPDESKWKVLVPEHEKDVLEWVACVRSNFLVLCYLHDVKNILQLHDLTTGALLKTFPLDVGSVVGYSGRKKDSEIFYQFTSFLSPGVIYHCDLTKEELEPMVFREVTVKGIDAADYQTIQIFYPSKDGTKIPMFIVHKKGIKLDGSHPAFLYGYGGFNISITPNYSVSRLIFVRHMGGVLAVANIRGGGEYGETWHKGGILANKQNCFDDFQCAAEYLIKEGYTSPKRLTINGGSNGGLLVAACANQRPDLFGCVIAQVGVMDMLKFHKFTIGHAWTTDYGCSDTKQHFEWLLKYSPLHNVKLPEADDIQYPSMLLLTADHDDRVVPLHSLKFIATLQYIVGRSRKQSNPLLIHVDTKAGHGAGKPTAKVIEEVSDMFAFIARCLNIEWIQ
substance,measurement,setting,value
FAP in human serum,cleavage of the aP probe in immunodepleted human serum,[1],"signal is lost after FAP immunodepletion from human serum, but not in control IgG-immunodepleted serum"
PREP in mouse plasma,"cleavage of the GP probe in mouse plasma, with cpd60 and KYP-2047",[2],PREP has a smaller but significant contribution
Human DPPII/DPP7 (3438-SE),"cleavage of fluorescence-quenched peptide (FRET-quench assay), peptidase at 2.5 µg/ml",[1],did not exhibit an ability to cleave the aP probe
